What was measured:
IGF-IR = IGF-IR (Homo sapiens, UniProt P08069); conditions: read-out: Kd of binding to IGF-IR; cited from earlier work
MCF-7 tumour = assay: In-vivo activity in a breast cancer model: nude mice grafted with MCF-7 cells, after onset of docetaxel resistance; conditions: docetaxel 9 mg/kg intravenously, 5 injections, mice bearing MCF-7 tumours
Method: Determination of in-vivo activity: In-vivo activity is tested in a breast cancer model: 7-week old nude female mice (Charles River Laboratories, n=15) were subcutaneously grafted with 5×10^6 MCF-7 cells 1 day after subcutaneous implantation of 0.72 mg of granules releasing 17β-estradiol (Innovative Research of America) for 60 days.
The mice are randomised, and treatment is initiated when the tumours reach a size of approximately 150 mm^3. The tumour volume (length×width×height×0.52) is measured at least twice a week and the therapeutic response is defined using solid tumour response criteria (RECIST).
Mice bearing MCF-7 tumours are injected intravenously with docetaxel, 9 mg/kg twice a week for a total of 5 injections.
The percentage of the regression values is calculated using the following formula:
where T=the tumour volume in the treated group, ΔT=the tumour volume in the treated group on the day of the study minus the tumour volume in the treated group on the initial day of administration, and Tinitial=the tumour volume in the treated group on the initial day of the administration The disease is considered to be progressing when the tumour size increases by >20%. Partial regression (PR) is defined as a reduction in tumour size >30%. […]

Sequence of IGF-IR (P08069 31-736 limits assumed): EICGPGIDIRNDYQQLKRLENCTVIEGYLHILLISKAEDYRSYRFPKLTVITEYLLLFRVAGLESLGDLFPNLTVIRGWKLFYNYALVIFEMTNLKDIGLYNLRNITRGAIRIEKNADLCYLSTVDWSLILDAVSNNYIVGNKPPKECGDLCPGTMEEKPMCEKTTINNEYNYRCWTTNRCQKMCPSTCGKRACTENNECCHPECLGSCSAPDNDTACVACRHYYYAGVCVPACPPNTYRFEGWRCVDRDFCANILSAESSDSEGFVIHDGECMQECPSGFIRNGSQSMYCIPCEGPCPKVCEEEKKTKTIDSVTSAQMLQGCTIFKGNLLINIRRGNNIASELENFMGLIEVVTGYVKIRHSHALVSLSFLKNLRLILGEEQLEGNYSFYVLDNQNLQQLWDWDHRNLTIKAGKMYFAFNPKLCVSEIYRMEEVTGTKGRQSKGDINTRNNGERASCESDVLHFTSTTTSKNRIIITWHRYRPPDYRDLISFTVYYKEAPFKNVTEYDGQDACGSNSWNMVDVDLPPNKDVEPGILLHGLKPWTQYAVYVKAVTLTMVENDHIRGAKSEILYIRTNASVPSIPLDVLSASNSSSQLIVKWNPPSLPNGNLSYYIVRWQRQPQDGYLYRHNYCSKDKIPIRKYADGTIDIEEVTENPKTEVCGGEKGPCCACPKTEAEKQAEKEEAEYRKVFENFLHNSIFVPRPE
Sequence of IGF-IR (P08069 741-1367 partner limits assumed): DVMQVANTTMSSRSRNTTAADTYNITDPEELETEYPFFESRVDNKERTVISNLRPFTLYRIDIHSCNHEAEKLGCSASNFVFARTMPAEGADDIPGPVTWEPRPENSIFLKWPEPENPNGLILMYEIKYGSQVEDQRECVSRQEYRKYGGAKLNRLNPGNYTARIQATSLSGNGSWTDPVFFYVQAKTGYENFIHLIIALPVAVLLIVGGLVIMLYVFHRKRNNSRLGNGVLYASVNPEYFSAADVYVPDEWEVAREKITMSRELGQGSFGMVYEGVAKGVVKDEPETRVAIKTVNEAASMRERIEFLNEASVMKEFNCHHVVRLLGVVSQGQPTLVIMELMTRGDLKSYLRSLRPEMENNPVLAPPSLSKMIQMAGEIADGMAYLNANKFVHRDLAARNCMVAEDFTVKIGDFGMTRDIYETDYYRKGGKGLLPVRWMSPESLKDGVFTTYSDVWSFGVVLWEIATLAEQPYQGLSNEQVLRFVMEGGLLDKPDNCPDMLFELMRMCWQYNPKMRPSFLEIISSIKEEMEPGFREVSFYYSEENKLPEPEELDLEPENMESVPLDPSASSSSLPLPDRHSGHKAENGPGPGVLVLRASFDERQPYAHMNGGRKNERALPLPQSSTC

Q: For IGF2: natural ligand bound by IGF-IR, which Kd (IGF-IR) is on record?
A: ~1 nM

Q: With `CC(=O)O[C@@]12CO[C@@H]1C[C@H](O)[C@@]1(C)C(=O)[C@H](O)C3=C(C)[C@@H](OC(=O)[C@H](O)[C@@H](NC(=O)OC(C)(C)C)c4ccccc4)C[C@@](O)([C@@H](OC(=O)c4ccccc4)[C@H]21)C3(C)C` [docetaxel] as the molecule, how does the “time after which the tumours became resistant to docetaxel and relapsed” value (MCF-7 tumour) read?
A: 70 days
